Assay results from patent US7595158B2, “Bcl2L12 polypeptide activators and inhibitors” (Dana-Farber Cancer Institute, Inc., priority 2003, dated 2009).

Assays:
[1] = system: Ink4a-/-/Arf-/- astrocytes; assay: Annexin V staining of STS-treated Ink4a/Arf deficient astrocytes (FACS); assay type: cell-based, mouse
Experimental: The following experiments were performed to determine whether the Bcl2L12 polypeptide influenced cell survival or apoptosis. Ink4a^−/−/Arf^−/− astrocytes retro-virally infected with vector alone (pBabe) or vector containing Bcl2 nucleic acid, Bcl2L12-V5 nucleic acid, R-RAS nucleic acid, or IRF3 nucleic acid were […] After this one day incubation, the cells were stained with annexin V (Roche). Annexin V-positive cells were determined by FACScan analysis (mean±S.D.; three independent experiments with each being performed in triplicate).
After STS treatment, the cells were analyzed for apoptosis by assessing annexin V binding and DNA fragmentation using a FACS based analysis.

[2] = system: p53 mediated transcription; assay: p53 luciferase reporter (PG13) in Ink4a/Arf deficient astrocytes; assay type: cell-based; details: normalized to βGal, vs vector control
Source text: Activation of the p53 transcription factor in response to a variety of cellular stresses, including DNA damage and oncogene activation, initiates a program of gene expression that blocks the proliferative expansion of damaged cells. To asses the effect of Bcl2L12 polypeptides on p53 mediated transcription, Ink4a/Arf deficient astrocytes ectopically expressing a Bcl2L12-V5 polypeptide were transfected with increasing amounts of nucleic acid encoding a p53 polypeptide and a luciferase construct bearing a dimerized p53 binding site in its promoter (PG13).

[3] = system: Ink4a/Arf deficient astrocytes; assay: Cell growth of transfected Ink4a/Arf deficient astrocytes over six days; assay type: cell-based, mouse; details: LacZ about 1.5×10^6 cells
Experimental: Ink4a/Arf deficient astrocytes transfected with a vector encoding either LacZ, Bcl2L12-V5, or EGFR* polypeptides were cultured for six days. Each day, the number of cells in each culture was determined. In addition, stably transfected cells were harvested and assessed for the phosphorylation of Erk1/2 (p44/p42).

[4] = system: Ink4a/Arf deficient astrocytic cell cultures; assay: Nuclear swelling (Nicoletti method) in Ink4a/Arf deficient astrocytes; assay type: cell-based, mouse; details: STS 500 nM 24 hours; vector only about 42 percent
Experimental: To quantify nuclear swelling in Ink4a/Arf deficient astrocytic cell cultures, cells transfected with vector only or a vector encoding a Bcl2L12-V5 polypeptide were treated with or without STS (500 nM) for 24 hours, lysed, and stained with Propidium Iodide (Nicoletti method). Nuclei with increased forward scatter (i.e., increased size) were defined as swollen, and the number of those nuclei relatively to the total number of nuclei was expressed as the percent swelling.

[5] = system: Ink4a/Arf deficient astrocytes; assay: Colony formation of Ink4a/Arf deficient astrocytes after gamma-irradiation; assay type: cell-based, mouse; details: γ-irradiated 5 Gy, ten days, 1000 cells/10 cm dish; vector only about 17
Experimental: The ability of Bcl2L12 polypeptide to promote colony formation was assessed. Briefly, 1000 cells were seeded in a 10 cm dish and γ-irradiated (5 Gy). After culturing the irradiated cells for ten days, the cells were stained with crystal violet, and the number of colonies was counted. Bcl2L12-V5 polypeptide expression promoted colony formation in Ink4a/Arf deficient astrocytes upon γ-irradiation (about 27 colonies for cells expressing Bcl2L12-V5 polypeptides compared to about 17 colonies for control vector only cells; 1000 cells/10 cm dish).

astrocytes = assay: Plasma membrane integrity (SYTOX Green) and LEHDase activity in STS-treated astrocytes; assay type: cell-based; details: range of STS concentrations
Experimental: To assess and quantify plasma membrane integrity, vector or Bcl2L12-V5 transfected astrocytes were treated with or without STS (500 nM) for 24 hours and stained with a combination of Hoechst (a DNA intercalating dye that enters living as well as apoptotic or necrotic cells) and SYTOX Green (a green fluorescent dye that only enters cells with a disintegrated plasma membrane). FIG. 4B is a picture of STS treated and untreated cells transfected with either a control vector (pBabe) of a vector encoding a Bcl2L12-V5 polypeptide.
In addition, the green cells were counted over a range of different STS concentration (FIG. 4C; bars), and caspase-9 activity was determined by quantifying LEHDase activity in the corresponding cell lysates (FIG. 4C; histogram). […] SYTOX green positive cells were also quantified using a FACS based analysis assessing the increase in green fluorescence.

[6] = system: Ink4a-/-/Arf-/- astrocytes; assay: Growth of transduced Ink4a-/-/Arf-/- astrocytes under normal and low-serum conditions; assay type: cell-based, mouse
Source text: The Bcl2L12-V5, R-RAS, and IRF3 nucleic acid sequences were cloned into expression vectors. Controls included expression vectors containing EGFR or Bcl2 nucleic acid sequences. The encoded polypeptides were expressed in primary astrocytes and tested for cell growth, transformation, and apoptosis activities. Primary astrocytes deficient for Ink4a/Arf (e.g., Ink4a^−/−/Arf^−/− astrocytes) were used given the prominence of this tumor suppressor lesion in advanced human gliomas. The following was performed to assess growth characteristics under normal growth conditions. Mouse Ink4a^−/−/Arf^−/− astrocytes were retro-virally transduced with pBabe vector alone; Bcl2L12-V5 nucleic acid; R-RAS nucleic acid; IRF3 nucleic acid; EGFR* nucleic acid; or Bcl2 nucleic acid. After retro-viral infection, transduced mouse Ink4a^−/−/Arf^−/− astrocytes were subjected to puromycin (2 μg/mL) selection for four days and plated at a density of 1×10^5 cells/10 cm dish using 10% FBS-DMEM medium. All transduced Ink4a^−/−/Arf^−/− astrocytes were counted each day for five days to determine cell numbers (mean±S.D.; three independent experiments with each being performed in triplicate).
The following was performed to assess growth characteristics under low-serum growth conditions. Retro-virally transduced mouse Ink4a^−/−/Arf^−/− astrocytes (1×10^6 cells/10 cm dish) were allowed to attach onto plates in 10% FBS-DMEM medium for five hours. After five hours, the medium was changed to 0.1% FBS-DMEM, and the cells were allowed to grow for three days. After three days in 0.1% FBS, the cells were counted to determine cell numbers (mean±S.D.; three independent experiments with each being performed in triplicate). The number of Ink4a^−/−/Arf^−/− astrocytes infected with pBabe-vector was set to 1.0.

[7] = system: Ink4a/Arf deficient embryonic fibroblasts; assay: Colony formation of Ink4a/Arf deficient embryonic fibroblasts; assay type: cell-based; details: about 300 cells per 6 well plate; vector only about 13
Experimental: In addition, Ink4a/Arf deficient embryonic fibroblasts were transfected with vector only or a vector encoding a Bcl2L12 polypeptide or Bcl2 polypeptide. Once the cells were transfected, the number of colonies formed in cultures (about 300 cells per 6 well plate) was determined. Expression of Bcl2L12 polypeptide promoted growth of Ink4a/Arf deficient embryonic fibroblasts. […] In a similar experiment, Ink4a/Arf deficient embryonic fibroblasts were co-transfected with a vector encoding H-RasV12 and either a vector only, vector encoding Bcl2L12 polypeptide, or a vector encoding Bcl2 polypeptide. Once the cells were transfected, the number of foci formed per transfection was determined. Expression of Bcl2L12 polypeptide or Bcl2 polypeptide in combination with H-RasV12 expression promoted growth of Ink4a/Arf deficient embryonic fibroblasts (about 1.5 to 2 fold more foci per transfection for cells expressing Bcl2L12 polypeptide or Bcl2 polypeptide compared to control pBabe cells).

B1: Bcl2L12-V5: Bcl2L12 polypeptide having the V5 epitope tag, ectopically expressed from pBabe-Bcl2L12-V5 vector; human amino acid sequence 1-334 (protein)
chain: MGRPAGLFPPLCPFLGFRPEACWERHMQIERAPSVPPFLRWAGYRPGPVRRRGKVELIKFVRVQWRRPQVEWRRRRWGPGPGASMAGSEELGLREDTLRVLAAFLRRGEAAGSPVPTPPRSPAQEEPTDFLSRLRRCLPCSLGRGAAPSESPRPCSLPIRPCYGLEPGPATPDFYALVAQRLEQLVQEQLKSPPSPELQGPPSTEKEAILRRLVALLEEEAEVINQKLASDPALRSKLVRLSSDSFARLVELFCSRDDSSRPSRACPGPPPPSPEPLARLALAMELSRRVAGLGGTLAGLSVEHVHSFTPWIQAHGGWEGILAVSPVDLNLPLD
modifications: left off: small tags and cut ends
[1]; 100 nM staurosporine one day, control cultures about 17-22 percent
  annexin-V positive cells: 6-7%
[1]; 500 nM STS, pBabe about 20 percent
  annexin V+/PI- cells: about 6%
[2]
  transcriptional activity of p53 (reporter activity): marked decrease of transcriptional activity
[3]
  cell number on day 6: about 3.8×10^6 cells
[4]
  swelling (nuclei): about 67%
[5]
  number of colonies: about 27 colonies
astrocytes
  SYTOX Green positivity: significantly increased
  caspase-9 activity (LEHDase): dramatically reduced
[6]; 0.1% FBS, three days, vs pBabe
  resistance to growth inhibition by low serum culture: significantly resistant to growth inhibition
[6]; over-expression, 10% FBS, vs vector only
  growth / proliferation under normal growth conditions: significant increase in growth
[7]
  number of colonies: about 26 colonies
